B1: Phage-3571 (peptide)
peptide: EMPLCIPQWMCGGF
notes: Peptide-180 library clone, tested as clonal phage supernatant with the peptide fused to pIII of the bacteriophage
B2: Phage-3575 (peptide)
peptide: FIAQCQPTWMCTGF
notes: as for B1
B3: Phage-3564 (peptide)
peptide: SPSYCVPKWMCVGF
notes: as for B1
B4: Phage-3572 (peptide)
peptide: VPTLCKPSWMCYGF
notes: as for B1
B5: Phage-3566 (peptide)
peptide: VSTMCVPEWMCGGF
notes: as for B1
B6: Phage-3574 (peptide)
peptide: EDIKCIPRWMCEGF
notes: as for B1
B7: Phage-3565 (peptide)
peptide: ELLKCVPQWMCTGF
notes: as for B1
B8: Phage-3563 (peptide)
peptide: EHRICVPQWMCTGF
notes: as for B1
B9: Phage-3567 (peptide)
peptide: DAMLCRPSWMCDGF
notes: as for B1
B10: Phage-3562 (peptide)
peptide: DDIRCEPIWMCTGF
notes: as for B1
B11: Phage-3570 (peptide)
peptide: VDKACTPAWMCTGF
notes: as for B1
B12: Phage-3573 (peptide)
peptide: AWMRCEPAWMCVGF
notes: as for B1
B13: Phage-3569 (peptide)
peptide: VAQWCTPSWMCDGF
notes: as for B1
B14: Phage-3568 (peptide)
peptide: PEAYCVPSWMCTGF
notes: as for B1

Assays:
Anti-PSMA Fab [1] = target: T1, Anti-PSMA Fab; test: phage binding ELISA on captured anti-PSMA Fab; wells pre-incubated with PSMA antigen as competitor; anti-M13-HRP detection
T1 construct: Biotinylated and captured on neutravidin coated plates in the phage ELISA; also called 006 PSMA Fab
Description: (§1) Clonal phage were harvested as crude supernatants and screened via standard ELISAs. […] Prior to the addition of clonal phage. wells were incubated with blocking buffer and PSMA antigen or blocking buffer alone. Without washing or aspirating, clonal phage supernatants were then added to the wells and incubated for a short time. Wells were then washed followed by detection of bound phage using a horse radish conjugated anti-M13 antibody.

Anti-PSMA Fab [2] = target: T1, Anti-PSMA Fab; test: phage binding ELISA; clonal phage supernatant on biotinylated anti-PSMA Fab captured on neutravidin plate; anti-M13-HRP detection
Description: as §1

PSMA Fab (006 PSMA Fab) [3] = target: T2, PSMA Fab (006 PSMA Fab); test: clonal phage ELISA on captured PSMA Fab, wells pre-incubated with PSMA antigen as competitor
T2 construct: also called Anti-PSMA Fab
Description: as §1

PSMA Fab (006 PSMA Fab) [4] = target: T2, PSMA Fab (006 PSMA Fab); test: clonal phage ELISA on biotinylated PSMA Fab captured on neutravidin, anti-M13 HRP detection;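 further: crude clonal phage supernatants added to wells pretreated with PSMA antigen in blocking buffer or with blocking buffer only, then briefly incubated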
Description: as §1

PSMA Fab [5] = target: T3, PSMA Fab (biotinylated (site not stated)); test: clonal phage ELISA on captured PSMA Fab, competitor PSMA antigen pre-incubated
T3 construct: Biotinylated PSMA Fab captured on neutravidin coated plates in the phage ELISA; also called Anti-PSMA Fab; 006 PSMA Fab

PSMA Fab [6] = target: T3, PSMA Fab; test: clonal phage ELISA on biotinylated PSMA Fab captured on neutravidin, anti-M13 HRP detection;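 further: crude clonal phage supernatants added to wells pretreated with PSMA antigen in blocking buffer or with blocking buffer only, then briefly incubated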
Description: as §1

| Binder | Phage binding ELISA signal, Anti-PSMA Fab with PSMA antigen (Anti-PSMA Fab [1]) | Phage binding ELISA signal, Anti-PSMA Fab (Anti-PSMA Fab [2]) | Phage binding ELISA signal, Anti-PSMA Fab in presence of PSMA (PSMA Fab (006 PSMA Fab) [3]) | Phage binding ELISA signal, Anti-PSMA Fab (PSMA Fab (006 PSMA Fab) [4]) | Phage binding ELISA signal, Anti-PSMA Fab with PSMA antigen (PSMA Fab [5]) | Phage binding ELISA signal, Anti-PSMA Fab (PSMA Fab [6]) |
| --- | --- | --- | --- | --- | --- | --- |
| NIMRCQPSWMCTGF (Tested as clonal phage supernatant) [Phage-3583 (Peptide-180 library clone)] | 0.064 | 1.61 |  |  |  |  |
| B1 |  |  | 0.0691 | 1.62 |  |  |
| ESHLCRPAWMCTGF (Tested as clonal phage supernatant) [Phage-3588 (Peptide-180 library clone)] | 0.089 | 1.6 |  |  |  |  |
| B2 |  |  | 0.076 | 1.62 |  |  |
| B3 |  |  | 0.0712 | 1.64 |  |  |
| B4 |  |  | 0.0941 | 1.62 |  |  |
| B5 |  |  | 0.122 | 1.63 |  |  |
| B6 |  |  | 0.0923 | 1.62 |  |  |
| B7 |  |  | 0.126 | 1.63 |  |  |
| PDPLCVPNWMCIGL [Phage-3593] |  |  |  |  | 0.0686 | 1.6 |
| B8 |  |  | 0.0676 | 1.64 |  |  |
| LGHWCSPTWMCMGF (Tested as clonal phage supernatant) [Phage-3581 (Peptide-180 library clone)] | 0.11 | 1.62 |  |  |  |  |
| B9 |  |  | 0.0871 | 1.62 |  |  |
| HEPVCKPSWMCTGL [Phage-3602] |  |  |  |  | 0.0595 | 1.58 |
| QGVACIPTWMCTGF [Phage-3595] |  |  |  |  | 0.0711 | 1.59 |
| B10 |  |  | 0.0657 | 1.64 |  |  |
| VMHRCEPSWMCWGF [Phage-3601] |  |  |  |  | 0.118 | 1.58 |
| EIPWCVPSWMCNYF [Phage-3597] |  |  |  |  | 0.0904 | 1.59 |
| B11 |  |  | 0.0716 | 1.62 |  |  |
| MPGACVPLWMCYGF [Phage-3590] |  |  |  |  | 0.0685 | 1.6 |
| PSPICRPEWMCVWL (Tested as clonal phage supernatant) [Phage-3584 (Peptide-180 library clone)] | 0.0954 | 1.61 |  |  |  |  |

| Binder | Phage binding ELISA signal, Anti-PSMA Fab with PSMA antigen (Anti-PSMA Fab [1]) | Phage binding ELISA signal, Anti-PSMA Fab (Anti-PSMA Fab [2]) | Phage binding ELISA signal, Anti-PSMA Fab in presence of PSMA (PSMA Fab (006 PSMA Fab) [3]) | Phage binding ELISA signal, Anti-PSMA Fab (PSMA Fab (006 PSMA Fab) [4]) | Phage binding ELISA signal, Anti-PSMA Fab with PSMA antigen (PSMA Fab [5]) | Phage binding ELISA signal, Anti-PSMA Fab (PSMA Fab [6]) |
| --- | --- | --- | --- | --- | --- | --- |
| VEKMCKPAWMCNVF [Phage-3592] |  |  |  |  | 0.0777 | 1.6 |
| ETFTCKPPWMCIGF (Tested as clonal phage supernatant) [Phage-3576 (Peptide-180 library clone)] | 0.104 | 1.62 |  |  |  |  |
| YDVVCKPAWMCNGF (Tested as clonal phage supernatant) [Phage-3578 (Peptide-180 library clone)] | 0.0676 | 1.62 |  |  |  |  |
| WEVRCEPAWMCIGL [Phage-3600] |  |  |  |  | 0.0694 | 1.59 |
| QDLKCVPSWMCSGF [Phage-3599] |  |  |  |  | 0.0713 | 1.59 |
| ESYTCVPMWMCTGF (Tested as clonal phage supernatant) [Phage-3582 (Peptide-180 library clone)] | 0.088 | 1.61 |  |  |  |  |
| GMGMCVPTWMCTGM (Tested as clonal phage supernatant) [Phage-3579 (Peptide-180 library clone)] | 0.0797 | 1.62 |  |  |  |  |
| B12 |  |  | 0.0695 | 1.62 |  |  |
| NLGWCVPVWMCEGF (Tested as clonal phage supernatant) [Phage-3586 (Peptide-180 library clone)] | 0.101 | 1.61 |  |  |  |  |
| B13 |  |  | 0.0794 | 1.62 |  |  |
| B14 |  |  | 0.0764 | 1.62 |  |  |
| VETLCRPAWMCWGF [Phage-3598] |  |  |  |  | 0.0788 | 1.59 |
| TTLMCTPQWMCDGF (Tested as clonal phage supernatant) [Phage-3589 (Peptide-180 library clone)] | 0.0718 | 1.6 |  |  |  |  |
| TFMRCEPVWMCDGF (Tested as clonal phage supernatant) [Phage-3585 (Peptide-180 library clone)] | 0.0709 | 1.61 |  |  |  |  |
| QLAMCVPLWMCYGF (Tested as clonal phage supernatant) [Phage-3580 (Peptide-180 library clone)] | 0.092 | 1.62 |  |  |  |  |
| HEPVCRPEWMCQGF (Tested as clonal phage supernatant) [Phage-3587 (Peptide-180 library clone)] | 0.0717 | 1.6 |  |  |  |  |
| LERLCRPAWMCDGF [Phage-3596] |  |  |  |  | 0.136 | 1.59 |
| TEIRCQPQWMCHGF [Phage-3594] |  |  |  |  | 0.0698 | 1.6 |
| YEKLCEPRWMCDGF (Tested as clonal phage supernatant) [Phage-3577 (Peptide-180 library clone)] | 0.0657 | 1.62 |  |  |  |  |
| EELMCRPVWMCLGF [Phage-3591] |  |  |  |  | 0.0789 | 1.6 |

Reference: patent US20260242478A1 (published 2026)
